# Experimental data from the supplement of paper PMC7125110.
# ± gives the standard error. For some assays here: Fewer inactive variants are shown than the library holds.
# B1: glmS ribozyme (parent)
# chain: AUAAAAGCGCCAGAACUACAGAAAUGUAGUUGACGAGGAGGAGGUUUAUCGAAUUUUCGGCGGAUGCCUCCAAA
# Columns and labels:
# Conditions in all cases: with glucosamine-6-phosphate
# [1] = variants of: B1; test: kcat; higher = faster cleavage; RNA array
# In short: (§1)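 Glucosamine-6-phosphate (40 μM to 10 mM) in HEPES/KCl/Mg(OAc)2 buffer was flowed over sequenced MiSeq chips, and tiles were imaged over ~14 h. Barcoded ribozyme variants there had been transcribed in situ by E. coli RNA polymerase and were tracked through a hybridised Cy3 probe at 37 °C. One- or two-exponential decay fits to per-tile medians, normalised to baseline and to non-cleaving reference variants, gave kobs. kcat and KM came from weighted Michaelis–Menten fits across concentrations.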
# [2] = variants of: B1; test: self-cleavage kobs at 10000 uM GlcN6P; higher = faster cleavage; RNA array
# In short: as §1
# [3] = variants of: B1; test: self-cleavage kobs at 640 uM GlcN6P; higher = faster cleavage; RNA array
# In short: as §1
# [4] = variants of: B1; test: self-cleavage kobs at 2500 uM GlcN6P; higher = faster cleavage; RNA array
# In short: as §1
# [5] = variants of: B1; test: KM; higher = weaker cofactor use; RNA array
# In short: as §1
# [6] = variants of: B1; test: self-cleavage kobs at 40 uM GlcN6P; higher = faster cleavage; RNA array
# In short: as §1
# [7] = variants of: B1; test: self-cleavage kobs at 160 uM GlcN6P; higher = faster cleavage; RNA array
# In short: as §1
Variant,kcat [1] [s⁻¹],self-cleavage kobs at 10000 uM GlcN6P [2] [s⁻¹],self-cleavage kobs at 640 uM GlcN6P [3] [s⁻¹],self-cleavage kobs at 2500 uM GlcN6P [4] [s⁻¹],KM [5] [µM],self-cleavage kobs at 40 uM GlcN6P [6] [s⁻¹],self-cleavage kobs at 160 uM GlcN6P [7] [s⁻¹]
A6C U47G,1.58e-05 ± 2.8e-06,–,–,–,–,–,–
U56A G60A,2.59e-05 ± 2.9e-06,2.33e-05 ± 1.2e-05,–,–,–,–,–
G51C U54C,< 1e-05,–,< 1e-05,< 1e-05,–,–,–
A53U C58A,0.000327 ± 1.5e-05,0.000256 ± 2.2e-05,5.94e-05 ± 5.9e-06,0.000143 ± 1.3e-05,3010 ± 250,–,–
U56G C58A,0.000993 ± 0.00023,0.000556 ± 7.1e-05,7.48e-05 ± 1.1e-05,0.000312 ± 3.6e-05,6930 ± 2300,–,–
A6U U55G,0.00137 ± 0.00067,0.000416 ± 6.4e-05,4.48e-05 ± 1e-05,0.000118 ± 1.9e-05,–,–,–
U56C C71A,4.36e-05 ± 8.2e-06,3.76e-05 ± 9e-06,–,5.14e-05 ± 1.2e-05,–,–,–
A39C C68U,0.000495 ± 6.5e-05,0.000445 ± 4.9e-05,0.000159 ± 1.7e-05,0.000367 ± 5.1e-05,1180 ± 300,2.73e-05 ± 7e-06,6.25e-05 ± 1.3e-05
U56A A64U,5.11e-05 ± 2e-06,4.52e-05 ± 1e-05,–,3.54e-05 ± 1.6e-05,1250 ± 250,–,–
U46A U55G,0.0019 ± 0.00044,0.00169 ± 0.00022,0.000893 ± 0.00011,0.001 ± 0.00022,1350 ± 440,5.8e-05 ± 7.5e-06,0.000169 ± 2.3e-05
C11U U30A,0.00152 ± 0.00047,0.0018 ± 0.00027,0.000433 ± 7.8e-05,0.0011 ± 0.00021,931 ± 450,8.01e-05 ± 1.1e-05,0.000252 ± 4.8e-05
G37A A42U,0.000872 ± 0.00012,0.000669 ± 9.4e-05,0.000193 ± 2.3e-05,0.00052 ± 6.6e-05,2220 ± 480,2.47e-05 ± 1.1e-05,5.06e-05 ± 1.2e-05
A36U C67G C68G C71U,6.17e-05 ± 1.7e-05,5.06e-05 ± 1.6e-05,0.000121 ± 3e-05,5.55e-05 ± 1.8e-05,–,4.88e-05 ± 1.9e-05,–
U31C U65A,0.000435 ± 5.4e-05,0.000385 ± 5.2e-05,0.000114 ± 1.8e-05,0.000217 ± 3.2e-05,2000 ± 480,–,3.17e-05 ± 1.3e-05
U46C A52U,0.0006 ± 0.00022,0.000199 ± 2.3e-05,3.24e-05 ± 1.6e-05,6.32e-05 ± 1.1e-05,–,< 1e-05,–
C58U U69C,2.82e-05 ± 7e-06,2.52e-05 ± 5.6e-06,–,5.56e-05 ± 1.6e-05,–,–,–
G29C C68U,0.000269 ± 5.9e-05,0.000368 ± 3.6e-05,0.000112 ± 8.7e-06,0.000172 ± 1.2e-05,959 ± 460,2.38e-05 ± 1.1e-05,4.12e-05 ± 5.7e-06
U56G C61A,< 1e-05,–,–,–,–,–,–

Variant,kcat [1] [s⁻¹],self-cleavage kobs at 10000 uM GlcN6P [2] [s⁻¹],self-cleavage kobs at 640 uM GlcN6P [3] [s⁻¹],self-cleavage kobs at 2500 uM GlcN6P [4] [s⁻¹],KM [5] [µM],self-cleavage kobs at 40 uM GlcN6P [6] [s⁻¹],self-cleavage kobs at 160 uM GlcN6P [7] [s⁻¹]
U46C U57C,9.95e-05 ± 2e-05,7.09e-05 ± 1.8e-05,–,4.88e-05 ± 2e-05,–,< 1e-05,–
U31C C34G,1.37e-05 ± 8.9e-07,–,–,–,1370 ± 240,–,–
U31C A53U,0.00494 ± 0.0007,0.00421 ± 0.00036,0.000925 ± 8.8e-05,0.00236 ± 0.00022,2460 ± 510,9.39e-05 ± 8.5e-06,0.000269 ± 4.7e-05
G29U G38A,< 1e-05,–,< 1e-05,< 1e-05,–,–,< 1e-05
U54G U65G,0.00368 ± 0.00099,0.00282 ± 0.00029,0.000629 ± 9e-05,0.00144 ± 0.00021,3430 ± 1300,5.92e-05 ± 6.8e-06,0.00012 ± 2.1e-05
U46A C68G,2.56e-05 ± 5.1e-06,–,–,3.32e-05 ± 1.5e-05,–,< 1e-05,–
G13A G59A,< 1e-05,–,–,–,–,–,–
C58U G59U,< 1e-05,< 1e-05,< 1e-05,–,–,< 1e-05,–
C11G A12C,0.000156 ± 3.2e-05,0.00011 ± 1.3e-05,–,6.61e-05 ± 1.2e-05,–,–,–
G44C U54C,0.000264 ± 8.4e-05,0.000179 ± 3e-05,–,0.000133 ± 2.4e-05,–,–,–
G44C C71U,1.52e-05 ± 3.3e-06,–,–,–,–,–,–
G59U U69G,2.94e-05 ± 8.4e-06,–,–,–,–,–,–
A14G G37A,0.00833 ± 0.0023,0.00564 ± 0.00066,0.00126 ± 0.00017,0.00399 ± 0.0005,3890 ± 1400,0.000119 ± 1.7e-05,0.00027 ± 3.3e-05
A48G C67G,5.64e-05 ± 1.8e-05,4.41e-05 ± 1.4e-05,3.36e-05 ± 1.6e-05,7.99e-05 ± 1.9e-05,–,–,< 1e-05
U57A C61G,1.36e-05 ± 5.5e-06,–,–,–,–,–,–
A12G C50G,1.17e-05 ± 2.1e-06,–,–,–,–,–,–
C50A G66C,1.65e-05 ± 3e-06,–,–,–,–,–,–
A14G A15U U30G,0.0196 ± 0.0037,–,0.0127 ± 0.0037,0.0232 ± 0.0085,263 ± 69,0.00266 ± 0.00038,0.00652 ± 0.0021
